According to patent publication US20260242458A1 (NOVAROCK BIOTHERAPEUTICS, published 2026):
Like-named read-outs stand apart in the source and are kept apart here.

T1: recombinant human IL-25 protein (human, UniProt Q9H293 33-177)
T1 sequence: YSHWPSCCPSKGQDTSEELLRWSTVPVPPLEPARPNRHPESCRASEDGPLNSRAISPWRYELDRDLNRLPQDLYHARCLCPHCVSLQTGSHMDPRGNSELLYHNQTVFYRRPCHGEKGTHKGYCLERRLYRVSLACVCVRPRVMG

T2: recombinant mouse IL-25 protein (mouse, UniProt Q8VHH8 17-169)
T2 construct: Bought (Sino Biological Inc, catalog no: 50138-M07H)
T2 sequence: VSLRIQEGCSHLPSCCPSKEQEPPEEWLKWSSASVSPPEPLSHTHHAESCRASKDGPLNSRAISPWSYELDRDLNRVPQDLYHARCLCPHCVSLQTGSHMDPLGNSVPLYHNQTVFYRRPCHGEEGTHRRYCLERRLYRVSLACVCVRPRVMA

T3: recombinant cynomolgus IL-25 protein (cynomolgus monkey, UniProt Q9H293 33-177 (human entry), limits assumed)
T3 construct: Bought (Sino Biological Inc, customized order); also called cyno IL-25
T3 chain: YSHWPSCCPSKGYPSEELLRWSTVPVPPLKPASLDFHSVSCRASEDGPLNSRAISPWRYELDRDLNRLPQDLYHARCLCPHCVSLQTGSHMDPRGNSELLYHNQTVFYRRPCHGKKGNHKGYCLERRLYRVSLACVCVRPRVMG

B1: IL25Ab3 (antibody, V domains shown)
VH: EVQLQQSGPELVKPGGSVRISCKASGYSFTGYTMNWVKQSHGKNLEWIGLINPDNGGTSHKQRFMGKATLTVDKSSSTAYMELLSLTSEDSAVYYCAREGYYGPSPFHHYAMDYWGQGTSVTVSS
VL: DIQMTQTTSSLSASLGDRVTISCSASQDISNYLNWYQQKPDGTIKLLIYYTSTLHSGVPSRFSGSGSGTDYSLTISNLEPEDIATYYCQQYSKLPYTFGGGTKLEIK
notes: detected with anti-human IgG or anti-human kappa reagents; also called anti-IL-25Ab3; mouse origin of anti-IL-25 specific antibody
B2: IL25Ab4 (antibody, V domains shown)
VH: QVTLKESGPGILQPSQTLSLTCSFSGFSLSTSGMGVSWIRQPSGKGLEWLAHIYWDDAKFYNPSLKSRVTISKDTSRNQVFLRITSVDTADIATYYCARRGYDNYGGFVDWGQGTLVTVSS
VL: ENVLIQSPAIMSASLGEKVTMSCRASSSVNYMYWYQQKSDAPPKLWIYYTSNLAPGVPGRFSGSGSGNSYSLTISSMEGEDAATYYCQQFTSYPYMYTFGGGTKLEIK
B3: IL25Ab5 (antibody, V domains shown)
VH: QVQLQQWGAGLLKPSETLSLTCAVYGGSFSAYYWSWIRQSPGKGLEWIGEINHGGNTNYSPSLKSRVTISVDTSKSQFSLKLSSVTAADTAAYYCARGPGITSWAFDFWDQGTMVTVSS
VL: DIQMTQSPSSLSASVGDRVTIACQASQDINNYLNWYQQKPGKAPKLLIYDASNLETGVPSRFSGNGSGTDFTFTISSLQPEDIATFYCQQYDTLPYTFGQGTKLEIR

Assays:
[1] = molecular target: T1, recombinant human IL-25 protein; assay: cell-based or functional assay
[2] = molecular target: T1, recombinant human IL-25 protein; assay: cell-based or functional assay; remark: listed apart in the source
[3] = molecular target: T1, recombinant human IL-25 protein; assay: cell-based or functional assay; remark: listed apart in the source
[4] = molecular target: T1, recombinant human IL-25 protein; assay: cell-based or functional assay; remark: listed apart in the source
[5] = molecular target: T1, recombinant human IL-25 protein; assay: cell-based or functional assay; remark: listed apart in the source
[6] = molecular target: T1, recombinant human IL-25 protein; assay: cell-based or functional assay; remark: listed apart in the source
[7] = molecular target: T1, recombinant human IL-25 protein; assay: ELISA, IL-25 coated, goat anti-human IgG-HRP detection
Procedure: (§1) In this study, the ability of five disclosed anti-IL-25 antibodies (IL25Ab1 to Ab5) binding to both human and mouse IL-25 was evaluated using ELISA. Briefly, recombinant human IL-25 protein (Acro, catalog no: IL5-H4221, lot no: 401-20CNF1-UT) or recombinant mouse IL-25 protein (Sino Biological Inc, catalog no: 50138-M07H, lot no: LC15AP0607) was directly coated to ELISA plates, respectively. Recombinant antibodies were then added to the plates followed by detection using goat-anti-human IgG-HRP (Jackson ImmunoResearch, catalog no: 109-035-098, Lot no: 157400). After the addition of ABTS (Moss Inc., catalog no: ABTS-1000, Lot no: 03086202) substrate, ELISA plates were read using an ELISA plate reader (Bioteck).

[8] = molecular target: T2, recombinant mouse IL-25 protein; assay: as above
Procedure: as §1

[9] = molecular target: T1, recombinant human IL-25 protein; assay: ELISA, IL-25 coated, goat anti-human kappa light chain-HRP detection
Procedure: (§2) In this study, the ability of three humanized anti-IL-25 antibodies generated in hIgG1 (IL25Ab6 to Ab8) and hIgG1 YTE formats (IL25Ab9 to Ab11) binding to both human, mouse and cynomolgus IL-25 was evaluated using ELISA. Briefly, recombinant human IL-25 protein (Acro, catalog no: IL5-H4221, lot no: 401-20CNF1-UT), recombinant mouse IL-25 protein (Sino Biological Inc, catalog no: 50138-M07H, lot no: LC15AP0607) or recombinant cynomolgus IL-25 protein (Sino Biological Inc, catalog no: customized order, lot no: MB17MA2715) was directly coated to ELISA plates, respectively. Recombinant antibodies were then added to the plates followed by detection using goat-anti-human Kappa Light Chain antibody HRP (Novus, catalog no: NBP1-75064, Lot no: 68-188-010920). After the addition of ABTS (Moss Inc., catalog no: ABTS-1000, Lot no: 03086202) substrate, ELISA plates were read using an ELISA plate reader (Bioteck).

[10] = molecular target: T2, recombinant mouse IL-25 protein; assay: as above
Procedure: as §2

[11] = molecular target: T3, recombinant cynomolgus IL-25 protein; assay: as above
Procedure: as §2

[12] = molecular target: T1, recombinant human IL-25 protein; assay: BLI (Octet), antibody captured on anti-human Fc biosensor, human IL-25 as analyte
Procedure: The binding kinetics of the disclosed anti-IL-25 antibodies to recombinant human IL-25 was determined by Octet® Bio-Layer Interferometry (BLI) systems by Sartorius. The assay uses anti-IL-25 monoclonal antibodies as the ligand and recombinant human IL-25 protein as the analyte.
Briefly, the assays were performed by first capturing 5 μg/ml of anti-IL-25 antibodies using anti-human Fc Octet biosensors. The mAb-captured biosensors were then submerged in wells containing serially diluted human IL-25 for 4-6 minutes, followed by a 10-15 minute dissociation time. The binding sensorgrams were collected and analyzed by the Octet Data Analysis software.

[13] = molecular target: T3, recombinant cynomolgus IL-25 protein; assay: ELISA: recombinant cynomolgus IL-25 coated on the plate, detection with goat-anti-human Kappa Light Chain antibody HRP, ABTS, OD 405
Procedure: as §2, with “another” for “this”, “five disclosed” for “three humanized”, “(IL25Ab1” for “generated in hIgG1 (IL25Ab6”, “Ab5)” for “Ab8) and hIgG1 YTE formats (IL25Ab9 to Ab11)”, “to” for “to both human, mouse and”, “401-20CNF1-UT)” for “401-20CNF1-UT), recombinant mouse IL-25 protein (Sino Biological Inc, catalog no: 50138-M07H, lot no: LC15AP0607)”

| Binder | IC50, IL-25 induced NF-kB signaling (SEAP) in HEK-Blue IL-17 reporter cells [1] | IC50, IL-25 induced CXCL1 production in HT-29 cells [2] | IC50, IL-25 induced IL-5 production in human PBMC [3] | IC50, IL-25 induced NF-kB signaling (SEAP) in HEK-Blue IL-17 reporter cells [4] | IC50, IL-25 induced CXCL1 production in HT-29 cells [5] | IC50, IL-25 induced IL-5 production in human PBMC [6] | EC50 [7] | EC50 [8] | EC50 [9] | EC50 [10] | EC50 [11] | Kd [12] | koff [12] | kon [12] | EC50 (read off the curve) [13] |
| --- | --- | --- | --- | --- | --- | --- | --- | --- | --- | --- | --- | --- | --- | --- | --- |
| B1 | 0.049 nM | 0.067 nM | 0.16 nM | 0.037 nM | 0.144 nM | 0.302 nM | 0.022 nM | 0.013 nM | 0.506 nM | 0.39 nM | 0.364 nM | < 0.001 nM | < 1e-07 s⁻¹ | 875000 M⁻¹ s⁻¹ | ~0.1 nM |
| B2 | 0.073 nM | 0.076 nM | 0.15 nM |  |  |  | 0.034 nM | 0.026 nM |  |  |  | < 0.001 nM | < 1e-07 s⁻¹ | 1.2e+06 M⁻¹ s⁻¹ | ~0.1 nM |
| B3 | 0.061 nM | 0.077 nM | 0.26 nM |  |  |  | 0.01 nM | 0.035 nM |  |  |  | < 0.001 nM | < 1e-07 s⁻¹ | 2.48e+06 M⁻¹ s⁻¹ | ~0.2 nM |
